Legend:
Assay in all cases: cell-based or functional assay
[1] = molecular target: T1, Ss.Ste2, Ste2-like mating GPCR of Scheffersomyces stipitis (Scheffersomyces stipitis)
T1 chain: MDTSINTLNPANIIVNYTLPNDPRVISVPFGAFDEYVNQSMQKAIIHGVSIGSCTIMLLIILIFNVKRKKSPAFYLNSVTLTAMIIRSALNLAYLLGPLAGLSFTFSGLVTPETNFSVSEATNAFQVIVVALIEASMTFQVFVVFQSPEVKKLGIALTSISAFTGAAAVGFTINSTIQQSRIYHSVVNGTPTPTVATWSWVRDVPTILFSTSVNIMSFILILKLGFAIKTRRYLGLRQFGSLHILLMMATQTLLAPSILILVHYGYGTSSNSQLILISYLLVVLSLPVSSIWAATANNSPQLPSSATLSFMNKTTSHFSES

[2] = molecular target: T2, Sca.Ste2, Ste2-like mating GPCR, code Sca (Saccharomyces castellii (Table 3 prints …))
T2 chain: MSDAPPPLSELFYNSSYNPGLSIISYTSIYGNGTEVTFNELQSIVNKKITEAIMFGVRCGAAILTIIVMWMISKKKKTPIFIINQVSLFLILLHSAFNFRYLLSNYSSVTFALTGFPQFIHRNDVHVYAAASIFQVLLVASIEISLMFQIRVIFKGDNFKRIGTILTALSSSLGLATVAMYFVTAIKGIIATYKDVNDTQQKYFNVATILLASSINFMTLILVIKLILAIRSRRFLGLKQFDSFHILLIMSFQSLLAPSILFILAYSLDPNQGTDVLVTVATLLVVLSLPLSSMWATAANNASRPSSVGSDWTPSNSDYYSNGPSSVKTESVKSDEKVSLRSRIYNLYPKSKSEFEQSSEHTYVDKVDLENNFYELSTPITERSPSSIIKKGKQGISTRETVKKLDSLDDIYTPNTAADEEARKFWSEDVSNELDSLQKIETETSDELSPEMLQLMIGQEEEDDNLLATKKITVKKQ

[3] = molecular target: T3, Sj.Ste2, Ste2-like mating GPCR of Schizosaccharomyces japonicus (Schizosaccharomyces japonicus)
T3 chain: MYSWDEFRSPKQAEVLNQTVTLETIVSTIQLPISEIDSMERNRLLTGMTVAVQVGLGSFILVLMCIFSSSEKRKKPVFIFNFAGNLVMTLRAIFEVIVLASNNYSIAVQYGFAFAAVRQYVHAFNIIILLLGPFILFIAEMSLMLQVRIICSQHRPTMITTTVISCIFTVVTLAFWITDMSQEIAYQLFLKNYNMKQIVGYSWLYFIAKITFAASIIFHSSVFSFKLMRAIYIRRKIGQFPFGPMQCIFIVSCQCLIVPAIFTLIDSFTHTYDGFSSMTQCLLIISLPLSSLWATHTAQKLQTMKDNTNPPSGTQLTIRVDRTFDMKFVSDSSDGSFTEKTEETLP

[4] = molecular target: T4, Vp1.Ste2, Ste2-like mating GPCR of Vanderwaltozyma polyspora1 (Vanderwaltozyma polyspora)
T4 chain: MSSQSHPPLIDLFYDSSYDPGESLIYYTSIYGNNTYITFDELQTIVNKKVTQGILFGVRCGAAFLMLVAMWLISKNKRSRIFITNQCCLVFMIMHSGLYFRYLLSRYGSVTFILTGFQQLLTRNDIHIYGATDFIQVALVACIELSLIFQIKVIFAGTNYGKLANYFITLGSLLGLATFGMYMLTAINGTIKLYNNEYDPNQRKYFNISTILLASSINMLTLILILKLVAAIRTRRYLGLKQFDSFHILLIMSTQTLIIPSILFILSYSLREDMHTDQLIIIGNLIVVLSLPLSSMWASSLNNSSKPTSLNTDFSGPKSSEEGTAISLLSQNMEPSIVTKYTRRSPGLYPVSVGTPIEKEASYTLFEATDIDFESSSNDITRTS

[5] = molecular target: T5, Nc.Ste2, Ste2-like mating GPCR of Neurospora crassa (Neurospora crassa)
T5 chain: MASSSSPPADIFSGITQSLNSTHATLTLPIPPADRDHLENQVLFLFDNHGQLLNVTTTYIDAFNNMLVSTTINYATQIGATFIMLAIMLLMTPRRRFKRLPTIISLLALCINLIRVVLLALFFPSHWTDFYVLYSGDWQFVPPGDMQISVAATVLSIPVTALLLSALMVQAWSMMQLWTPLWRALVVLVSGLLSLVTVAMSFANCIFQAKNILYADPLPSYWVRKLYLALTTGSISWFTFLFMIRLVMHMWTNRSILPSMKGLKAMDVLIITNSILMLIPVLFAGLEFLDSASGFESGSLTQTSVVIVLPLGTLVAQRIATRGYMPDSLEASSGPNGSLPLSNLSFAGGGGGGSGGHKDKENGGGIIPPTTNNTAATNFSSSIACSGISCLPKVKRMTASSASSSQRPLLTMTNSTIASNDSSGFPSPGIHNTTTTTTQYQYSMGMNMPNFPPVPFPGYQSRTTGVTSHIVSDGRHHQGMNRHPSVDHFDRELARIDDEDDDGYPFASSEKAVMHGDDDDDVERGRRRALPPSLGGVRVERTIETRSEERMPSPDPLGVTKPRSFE

WHWTSYGVFEPG [Ss peptide ligand #1 WHWTSYGVFEPG]
Bttm (FUS1p-RFP reporter) [1]: 23 fluorescence/A600 (not printed) | EC50 (FUS1p-RFP reporter) [1]: -7.9 log10 M (not printed) | Fold Change (FUS1p-RFP reporter) [1]: 13.8 fold | Span (FUS1p-RFP reporter) [1]: 295 fluorescence/A600 (not printed) | Top (FUS1p-RFP reporter) [1]: 318 fluorescence/A600 (not printed)

NWHWLRLDPGQPLY [Sca peptide ligand #1 NWHWLRLDPGQPLY]
Bttm (FUS1p-RFP reporter) [2]: 24.3 fluorescence/A600 (not printed) | EC50 (FUS1p-RFP reporter) [2]: -8.1 log10 M (not printed) | Fold Change (FUS1p-RFP reporter) [2]: 6.4 fold | Span (FUS1p-RFP reporter) [2]: 131 fluorescence/A600 (not printed) | Top (FUS1p-RFP reporter) [2]: 155 fluorescence/A600 (not printed)

VSDRVKQMLSHWWNFRNPDTANL [Sj peptide ligand #1 VSDRVKQMLSHWWNFRNPDTANL]
Bttm (FUS1p-RFP reporter) [3]: 21.2 fluorescence/A600 (not printed) | EC50 (FUS1p-RFP reporter) [3]: -7.8 log10 M (not printed) | Fold Change (FUS1p-RFP reporter) [3]: 14.7 fold | Span (FUS1p-RFP reporter) [3]: 290 fluorescence/A600 (not printed) | Top (FUS1p-RFP reporter) [3]: 311 fluorescence/A600 (not printed)

WHWLELDNGQPIY [Vp1 peptide ligand #1 WHWLELDNGQPIY]
Bttm (FUS1p-RFP reporter) [4]: 28.8 fluorescence/A600 (not printed) | EC50 (FUS1p-RFP reporter) [4]: -8.6 log10 M (not printed) | Fold Change (FUS1p-RFP reporter) [4]: 8.4 fold | Span (FUS1p-RFP reporter) [4]: 214 fluorescence/A600 (not printed) | Top (FUS1p-RFP reporter) [4]: 243 fluorescence/A600 (not printed)

QWCRIHGQSCW [Nc peptide ligand #1 QWCRIHGQSCW]
Bttm (FUS1p-RFP reporter) [5]: 27.6 fluorescence/A600 (not printed) | EC50 (FUS1p-RFP reporter) [5]: -6.3 log10 M (not printed) | Fold Change (FUS1p-RFP reporter) [5]: 10.4 fold | Span (FUS1p-RFP reporter) [5]: 259 fluorescence/A600 (not printed) | Top (FUS1p-RFP reporter) [5]: 287 fluorescence/A600 (not printed)

Source: US20220119825A1, “SCALABLE PEPTIDE-GPCR INT[…] SYSTEMS” (THE TRUSTEES OF COLUMBIA UNIVERSITY IN THE CITY OF NEW YORK, priority 2019, published 2022)
